The experiment addresses T1, [^35S]-tastin (UniProt Q12815 1-778, limits assumed, [^35S]-methionine labeled).
T1 construct: also called in vitro translated [^35S]-labeled tastin
T1 sequence (looked up): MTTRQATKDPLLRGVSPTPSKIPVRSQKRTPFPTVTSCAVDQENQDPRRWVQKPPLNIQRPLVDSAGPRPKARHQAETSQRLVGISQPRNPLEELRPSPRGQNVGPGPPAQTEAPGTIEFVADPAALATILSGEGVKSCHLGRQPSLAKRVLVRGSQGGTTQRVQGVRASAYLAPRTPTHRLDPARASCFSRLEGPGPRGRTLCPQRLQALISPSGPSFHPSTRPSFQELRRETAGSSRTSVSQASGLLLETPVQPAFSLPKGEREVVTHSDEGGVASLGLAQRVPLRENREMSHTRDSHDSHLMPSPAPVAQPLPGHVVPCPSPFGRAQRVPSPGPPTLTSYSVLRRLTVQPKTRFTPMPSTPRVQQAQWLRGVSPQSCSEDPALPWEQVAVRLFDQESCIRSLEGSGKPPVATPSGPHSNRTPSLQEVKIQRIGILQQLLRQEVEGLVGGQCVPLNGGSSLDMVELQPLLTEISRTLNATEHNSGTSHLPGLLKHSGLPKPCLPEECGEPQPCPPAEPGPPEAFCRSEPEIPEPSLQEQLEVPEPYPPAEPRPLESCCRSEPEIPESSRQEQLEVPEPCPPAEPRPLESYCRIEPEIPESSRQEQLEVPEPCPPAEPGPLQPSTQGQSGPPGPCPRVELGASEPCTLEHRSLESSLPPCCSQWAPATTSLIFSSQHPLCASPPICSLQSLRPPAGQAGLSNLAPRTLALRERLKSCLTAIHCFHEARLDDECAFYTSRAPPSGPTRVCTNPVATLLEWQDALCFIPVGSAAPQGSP
The experiment can be described thus: GST pull-down of in vitro translated [^35S]-protein on glutathione beads, autoradiography (FIG. 7A). The procedure: In vitro translated [³⁵S]-labeled trophinin, bystin or tastin was incubated with GST or GST-ErbB4 immobilized on glutathione beads. Bead-bound materials were visualized by autoradiography after gel electrophoresis. […] Bead-bound materials were visualized by autoradiography. Note that trophinin is captured by GSTErbB4 when bystin is present. […] HT-H cells treated with or without GWRQ peptide were subjected to immunoprecipitation with antiErbB4 antibody, followed by western blot analysis. Note that trophinin and bystin were co-immunoprecipitated with ErbB4 from cells not treated with GWRQ, whereas less trophinin was present in precipitates from GWRQ-treated cells.
A GST-fusion protein pull-down assay was carried out as described (Swaffield, J C, et al. 1996). Trophinin, bystin, and tastin proteins were produced as [³⁵S]-methionine labeled proteins using an vitro transcription and translation kit (TnT, Promega), according to the manufacturer's protocol. [³⁵S]-trophinin, [³⁵S]-bystin, and [³⁵S]-tastin were mixed individually with GSTErbB4 immobilized on glutathione beads in binding buffer (Swaffield, J C, et al. 1996) at 4° C. for 1 hour. After washing unbound materials with binding buffer, bead-bound material was eluted by boiling in SDS sample buffer. [³⁵S]-labeled proteins eluted were analyzed by SDS-PAGE followed by fluorography.

B1: GST-ErbB4 fusion protein (cytoplasmic domain of human ErbB4) (other, UniProt Q15303 676-1308, looked up)
chain: RRKSIKKKRALRRFLETELVEPLTPSGTAPNQAQLRILKETELKRVKVLGSGAFGTVYKGIWVPEGETVKIPVAIKILNETTGPKANVEFMDEALIMASMDHPHLVRLLGVCLSPTIQLVTQLMPHGCLLEYVHEHKDNIGSQLLLNWCVQIAKGMMYLEERRLVHRDLAARNVLVKSPNHVKITDFGLARLLEGDEKEYNADGGKMPIKWMALECIHYRKFTHQSDVWSYGVTIWELMTFGGKPYDGIPTREIPDLLEKGERLPQPPICTIDVYMVMVKCWMIDADSRPKFKELAAEFSRMARDPQRYLVIQGDDRMKLPSPNDSKFFQNLLDEEDLEDMMDAEEYLVPQAFNIPPPIYTSRARIDSNRSEIGHSPPPAYTPMSGNQFVYRDGGFAAEQGVSVPYRAPTSTIPEAPVAQGATAEIFDDSCCNGTLRKPVAPHVQEDSSTQRYSADPTVFAPERSPRGELDEEGYMTPMRDKPKQEYLNPVEENPFVSRRKNGDLQALDNPEYHNASNGPPKAEDEYVNEPLYLNTFANTLGKAEYLKNNILSMPEKAKKAFDNPDYWNHSLPPRSTLQHPDYLQEYSTKYFYKQNGRIRPIVAENPEYLSEFSLKPGTVLPPPPYRHRNTVV
notes: domain: cytoplasmic domain; Expressed in bacteria, immobilized on glutathione beads; Linker between GST and ErbB4 not described; not shown: glutathione S-transferase encoded by the vector pGEX-KG
Take B1: the binding result is “no binding”.

Source of the values: US20080200369A1 (SANFORD BURNHAM MEDICAL RESEARCH INSTITUTE, published 2008).
